Article PMC7383614, “Computational Design of Enantiocomplementary Epoxide Hydrolases for Asymmetric Synthesis of Aliphatic and Aromatic Diols” (Chembiochem, 2020)

Key:
Assay in all cases: initial velocities of diol formation, Michaelis-Menten fit
Assay type in all cases: biochemical, Rhodococcus erythropolis
Conditions in all cases: buffer and temperature of kinetics not given (activity assays: 50 mM HEPES pH 8, 30 °C)
[1] = substrate: C1CC2OC2C1
Excerpt: (§1) initial velocities of diol formation, Michaelis-Menten fit on LEH-P (thermostable limonene epoxide hydrolase)

[2] = substrate: c1ccc([C@H]2O[C@H]2c2ccccc2)cc1
Excerpt: as §1

[3] = substrate: C[C@@H]1O[C@@H]1C
Excerpt: as §1

[4] = variant 43A, single measurement, margin from average coefficient of variation

B1: LEH-P (thermostable limonene epoxide hydrolase) (Rhodococcus erythropolis; A19K/E45K/N92K/S15P/T2A/T76K/T85V/Y96F) (protein)
chain: MASKIEQPRWASKDPAAGKASTPDEKIVLEFMDALTSNDAAKLIKYFAEDTMYQNMPLPPAYGRDAVEQTLAGLFKVMSIDAVEVFHIGSSKGLVFTERVDVLRALPTGKSYNLSILGVFQLTEGKITGWRDYFDLREFEEAVDLPLRG
notes: N-terminal hexa-His tag; expressed in E. coli; dimeric
Km [1]: 4200 ± 200 µM
kcat [1]: 0.035 ± 0.004 s⁻¹
kcat/Km [1]: 7.9 M⁻¹ s⁻¹
Km [2]: 370 ± 20 µM
kcat [2]: 0.147 ± 0.012 s⁻¹
kcat/Km [2]: 406 M⁻¹ s⁻¹
Km [3]: 18000 ± 1000 µM
kcat [3]: 0.056 ± 0.01 s⁻¹
kcat/Km [3]: 3.1 M⁻¹ s⁻¹

B2: LEH-P (thermostable limonene epoxide hydrolase) (Rhodococcus erythropolis; A19K/E45K/F139L/I80W/L103V/L35G/M32L/N92K/S15P/T2A/T76K/T85V/Y96F) (protein)
chain: MASKIEQPRWASKDPAAGKASTPDEKIVLEFLDAGTSNDAAKLIKYFAEDTMYQNMPLPPAYGRDAVEQTLAGLFKVMSWDAVEVFHIGSSKGLVFTERVDVVRALPTGKSYNLSILGVFQLTEGKITGWRDYFDLRELEEAVDLPLRG
notes: as for B1
Km ([2]; variant 60A): 60 ± 10 µM
kcat ([2]; variant 60A): 0.052 ± 0.006 s⁻¹
kcat/Km ([2]; variant 60A): 890 M⁻¹ s⁻¹

B3: LEH-P (thermostable limonene epoxide hydrolase) (Rhodococcus erythropolis; A19K/E45K/F139L/I116F/L103I/L114M/L35M/M32L/N92K/S15P/T2A/T76K/T85V/Y96F) (protein)
chain: MASKIEQPRWASKDPAAGKASTPDEKIVLEFLDAMTSNDAAKLIKYFAEDTMYQNMPLPPAYGRDAVEQTLAGLFKVMSIDAVEVFHIGSSKGLVFTERVDVIRALPTGKSYNMSFLGVFQLTEGKITGWRDYFDLRELEEAVDLPLRG
notes: as for B1
Km ([2]; variant 41B): 190 ± 20 µM
kcat ([2]; variant 41B): 0.002 ± 0.001 s⁻¹
kcat/Km ([2]; variant 41B): 10.5 M⁻¹ s⁻¹

B4: LEH-P (thermostable limonene epoxide hydrolase) (Rhodococcus erythropolis; A19K/E45K/F139L/I116V/I80F/L103I/M32A/M78I/N92K/S15P/T2A/T76K/T85V/Y96F) (protein)
chain: MASKIEQPRWASKDPAAGKASTPDEKIVLEFADALTSNDAAKLIKYFAEDTMYQNMPLPPAYGRDAVEQTLAGLFKVISFDAVEVFHIGSSKGLVFTERVDVIRALPTGKSYNLSVLGVFQLTEGKITGWRDYFDLRELEEAVDLPLRG
notes: as for B1
Km ([1]; variant 24A): 3000 ± 200 µM
kcat ([1]; variant 24A): 0.005 ± 0.001 s⁻¹
kcat/Km ([1]; variant 24A): 1.9 M⁻¹ s⁻¹

B5: LEH-P (thermostable limonene epoxide hydrolase) (Rhodococcus erythropolis; A19K/E45K/F134Y/F139W/L103V/L74I/N92K/S15P/T2A/T76K/T85V/Y96F) (protein)
chain: MASKIEQPRWASKDPAAGKASTPDEKIVLEFMDALTSNDAAKLIKYFAEDTMYQNMPLPPAYGRDAVEQTLAGIFKVMSIDAVEVFHIGSSKGLVFTERVDVVRALPTGKSYNLSILGVFQLTEGKITGWRDYYDLREWEEAVDLPLRG
notes: as for B1
Km [1, 4]: 35000 ± 4000 µM
kcat [1, 4]: 0.017 ± 0.005 s⁻¹
kcat/Km [1, 4]: 0.48 M⁻¹ s⁻¹

B6: LEH-P (thermostable limonene epoxide hydrolase) (Rhodococcus erythropolis; A19K/E45K/I116F/L103I/L114M/L35M/M32L/M78I/N92K/S15P/T2A/T76K/T85V/Y96F) (protein)
chain: MASKIEQPRWASKDPAAGKASTPDEKIVLEFLDAMTSNDAAKLIKYFAEDTMYQNMPLPPAYGRDAVEQTLAGLFKVISIDAVEVFHIGSSKGLVFTERVDVIRALPTGKSYNMSFLGVFQLTEGKITGWRDYFDLREFEEAVDLPLRG
notes: as for B1
Km ([2]; variant 52A): 160 ± 30 µM
kcat ([2]; variant 52A): 0.003 ± 0.001 s⁻¹
kcat/Km ([2]; variant 52A): 19 M⁻¹ s⁻¹
